Data taken from the supplement of paper PMC9732359.
± gives the uncertainty stated by the source.

Assay: protein stability index of a GFP-peptide fusion (yeast GPS) (PSI 1-4); higher = more stable; sorted into four equal gates, so the index is relative within each strain
Procedure, shortened: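 Plasmids isolated from each sorting gate were PCR-amplified and Illumina-sequenced, and barcodes assigned the reads to strains. The gates, four of equal size, were set by GFP/Cherry fluorescence ratio on mid-log cultures in leucine-free medium. These cultures were yeast carrying a pooled library of tiled 17-residue yeast protein peptides fused downstream of GFP on a plasmid that also expresses Cherry. The protein stability index is the sum of every gate's read frequency times its gate number.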

Sequence	protein stability index (doa10∆)	protein stability index (pdr5∆)	protein stability index (san1∆)	protein stability index (ubr1∆)
LGNDIPHDLIIGTADIF [BRR2]	2.6 ± 0.055	2.76 ± 0.068	2.84 ± 0.059	2.86 ± 0.047
VDSRNETDHKTNENGET [SRB4]	3.26 ± 0.16	2.75 ± 0.18	2.77 ± 0.098	3.27 ± 0.19
EDRPPEYWAQRKKKFVL [ISW2]	–	3.13 ± 0.19	–	–
QNDILQESFINTMSAWV [FAS2]	2.14 ± 0.089	2.54 ± 0.19	2.55 ± 0.074	2.28 ± 0.086
ANQSATSTPPPPPAPHN [SNF5]	2.98 ± 0.041	3.03 ± 0.034	2.82 ± 0.034	3.1 ± 0.032
ERLHELKKLQSDIESAN [SMC1]	2.99 ± 0.076	3.23 ± 0.12	3.19 ± 0.061	3.2 ± 0.067
HDISRYVRAKFLDYTTD [PRP8]	2.23 ± 0.066	1.99 ± 0.088	1.83 ± 0.12	2.54 ± 0.089
NVESVGSIPVDQVVVRG [RPB3]	2.63 ± 0.057	2.45 ± 0.072	2.3 ± 0.07	2.23 ± 0.059
LEQQKQPTGLLKGLNGF [YMR153W/NUP53]	3.53 ± 0.12	3.46 ± 0.11	3.18 ± 0.11	3.34 ± 0.074
HGSIIILGMLSLADNEI [YCS4]	1.99 ± 0.069	2.04 ± 0.069	2.05 ± 0.1	2.25 ± 0.075
RDEIAKNTELSYDFLPL [RPN12]	1.54 ± 0.062	2.23 ± 0.072	1.82 ± 0.079	2.32 ± 0.05
PHTVIRRKTTKQNSSSD [YDL088C/ASM4]	3.14 ± 0.089	3.05 ± 0.079	3.01 ± 0.068	2.9 ± 0.043
FDTVSNKLFTEPIKLEP [YMR129W/POM152]	2.58 ± 0.046	2.7 ± 0.065	2.64 ± 0.057	2.91 ± 0.036
VAALKAVGAHSDLLKVL [RPL4A]	3.21 ± 0.093	3.16 ± 0.11	2.71 ± 0.1	2.83 ± 0.059
QLELRQLNASISLIPEL [RRI2]	2.55 ± 0.062	2.58 ± 0.069	2.42 ± 0.063	2.85 ± 0.043
LKTVLHNGRDKIQFHIH [RGR1]	1.49 ± 0.047	1.49 ± 0.05	1.41 ± 0.074	1.39 ± 0.048
SPEGRLFQVEYSLEAIK [PUP2]	2.37 ± 0.19	2.86 ± 0.1	2.75 ± 0.12	2.62 ± 0.067
TQTVSGTPPMLHQRTHK [DSN1]	2.97 ± 0.12	3.11 ± 0.097	2.89 ± 0.16	2.98 ± 0.088
TTRVGGGGAARRQAVDV [RPS5]	1.61 ± 0.26	1.63 ± 0.12	1.73 ± 0.28	1.82 ± 0.17
SIGRTAQGKEFGVTKAR [RPL17A]	3.28 ± 0.14	3.44 ± 0.12	3.05 ± 0.096	–
ATFTSIELTSYESIATY [RPN7]	1.75 ± 0.038	1.9 ± 0.04	1.77 ± 0.046	1.77 ± 0.025
TDVLEISKQRTFAVILF [YMR129W/POM152]	1.93 ± 0.056	2.52 ± 0.054	2.41 ± 0.058	2.21 ± 0.041
KKKGLDENTSGKISKPR [PRP28]	3.5 ± 0.091	3.23 ± 0.14	3.52 ± 0.065	3.45 ± 0.099
QTLLANSDHAKFTIEPG [SNF2]	2.35 ± 0.059	2.33 ± 0.065	2.41 ± 0.1	2.37 ± 0.063
IHNYDSKKSTITVRYWL [RGR1]	3 ± 0.087	2.88 ± 0.081	2.69 ± 0.067	3.09 ± 0.049
FGPHVDVNDVLTKYIRS [GRR1]	3.3 ± 0.056	3.2 ± 0.061	3.41 ± 0.046	3.29 ± 0.04
